Results reported in patent US20160075780A1 (NB HEALTH LABORATORY, published 2016).
Where “and” joins values, the source holds several entries; their conditions need not be identical. Identical values can stand only once. Each block holds one binder with its values, some of them ahead of it.

Columns and labels:
[1] = target: human EP4 with V5 and 6xHIS tags at the C-terminus, on the CHO cell line stably expressing human EP4 (human, UniProt P35408 1-488); assay: cell-based or functional assay
[2] = target: T1, mouse EP3 with Cycle 3 GFP at the C-terminus, on 293FT cells (mouse, UniProt P30557 1-365); assay: flow cytometry on 293FT cells transiently expressing EP-GFP
T1 construct: whole, on cells; also called mEP3; pcDNA-DEST47-mEP3; not shown: Cycle 3 GFP from the pcDNA-DEST47 vector
T1 sequence (looked up): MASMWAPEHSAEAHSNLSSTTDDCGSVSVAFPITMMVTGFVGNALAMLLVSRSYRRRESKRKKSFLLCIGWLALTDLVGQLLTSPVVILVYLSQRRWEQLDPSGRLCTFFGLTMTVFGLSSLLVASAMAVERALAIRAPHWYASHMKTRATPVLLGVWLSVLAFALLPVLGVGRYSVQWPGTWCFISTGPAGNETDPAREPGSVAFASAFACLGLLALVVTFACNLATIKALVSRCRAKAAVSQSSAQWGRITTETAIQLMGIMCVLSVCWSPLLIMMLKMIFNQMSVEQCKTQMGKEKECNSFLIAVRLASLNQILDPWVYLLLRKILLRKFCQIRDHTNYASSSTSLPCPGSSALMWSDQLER
Method: (§1) The pcDNA-DEST47-hEP1, pcDNA-DEST47-hEP2, pcDNA-DEST47-hEP3, pcDNA-DEST47-hEP4, pcDNA-DEST47-mEP1, pcDNA-DEST47-mEP2, pcDNA-DEST47-mEP3, and pcDNA-DEST47-mEP4 produced in (11) above (10 μg each) were each introduced into 293FT cells, using Lipofectamin 2000. On the following day, the cells were washed with HBSS, and were then removed from the cell culture dish using an enzyme-free cell dissociation buffer. The cells were then recovered by centrifugation. The thus recovered cells are referred to as 293FT cells transiently expressing EP.
(§2) The binding test of the anti-EP4 antibody of the present invention and the 293FT transiently expressing EP cells was carried out with a flow cytometer according to the method described in (6) above. 293FT cells (5×10⁵ cells) that transiently expressed each of 8 types of PGE₂ receptor subtypes were used. As a primary antibody, 1 μg of the anti-EP4 antibody NBG016-mAb14 or NBG016-mAb21, or a mouse isotype control antibody (manufactured by BioRegend) was used. As a secondary antibody, a PE-labeled anti-mouse IgG antibody was used.

[3] = target: T2, human EP2 with Cycle 3 GFP at the C-terminus, on 293FT cells (human, UniProt P43116 1-358); assay: as above
T2 construct: whole, on cells; also called hEP2; pcDNA-DEST47-hEP2; not shown: Cycle 3 GFP from the pcDNA-DEST47 vector
T2 sequence (P43116 whole entry): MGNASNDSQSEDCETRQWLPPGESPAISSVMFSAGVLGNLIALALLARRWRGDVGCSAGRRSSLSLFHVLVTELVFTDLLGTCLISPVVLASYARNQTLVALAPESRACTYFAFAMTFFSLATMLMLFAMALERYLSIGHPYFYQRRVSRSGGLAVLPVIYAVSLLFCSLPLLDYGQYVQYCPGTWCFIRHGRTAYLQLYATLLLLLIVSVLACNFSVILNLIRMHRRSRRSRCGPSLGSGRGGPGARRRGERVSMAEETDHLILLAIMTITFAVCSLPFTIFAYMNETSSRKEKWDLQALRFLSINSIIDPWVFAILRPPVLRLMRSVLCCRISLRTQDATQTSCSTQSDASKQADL
Method: as §1, §2

[4] = target: T3, human EP1 with Cycle 3 GFP at the C-terminus, on 293FT cells (human, UniProt P34995 1-402); assay: as above
T3 construct: whole, on cells; also called hEP1; pcDNA-DEST47-hEP1; not shown: Cycle 3 GFP from the pcDNA-DEST47 vector
T3 sequence (looked up): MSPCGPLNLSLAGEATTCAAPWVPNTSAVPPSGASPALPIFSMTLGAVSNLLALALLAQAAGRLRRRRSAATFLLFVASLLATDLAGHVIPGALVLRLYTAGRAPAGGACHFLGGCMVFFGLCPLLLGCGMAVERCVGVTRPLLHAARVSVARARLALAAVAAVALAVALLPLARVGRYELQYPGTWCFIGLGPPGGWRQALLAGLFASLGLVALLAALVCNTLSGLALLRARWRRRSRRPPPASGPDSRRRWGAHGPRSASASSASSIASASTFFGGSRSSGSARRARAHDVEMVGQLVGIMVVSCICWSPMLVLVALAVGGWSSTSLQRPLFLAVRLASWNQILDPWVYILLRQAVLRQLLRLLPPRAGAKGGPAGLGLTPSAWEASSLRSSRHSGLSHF
Method: as §1, §2

[5] = target: T4, mouse EP4 with Cycle 3 GFP at the C-terminus, on 293FT cells (mouse, UniProt P32240 1-513); assay: as above
T4 construct: whole, on cells; also called mEP4; pcDNA-DEST47-mEP4; not shown: Cycle 3 GFP from the pcDNA-DEST47 vector
T4 sequence (P32240 whole entry): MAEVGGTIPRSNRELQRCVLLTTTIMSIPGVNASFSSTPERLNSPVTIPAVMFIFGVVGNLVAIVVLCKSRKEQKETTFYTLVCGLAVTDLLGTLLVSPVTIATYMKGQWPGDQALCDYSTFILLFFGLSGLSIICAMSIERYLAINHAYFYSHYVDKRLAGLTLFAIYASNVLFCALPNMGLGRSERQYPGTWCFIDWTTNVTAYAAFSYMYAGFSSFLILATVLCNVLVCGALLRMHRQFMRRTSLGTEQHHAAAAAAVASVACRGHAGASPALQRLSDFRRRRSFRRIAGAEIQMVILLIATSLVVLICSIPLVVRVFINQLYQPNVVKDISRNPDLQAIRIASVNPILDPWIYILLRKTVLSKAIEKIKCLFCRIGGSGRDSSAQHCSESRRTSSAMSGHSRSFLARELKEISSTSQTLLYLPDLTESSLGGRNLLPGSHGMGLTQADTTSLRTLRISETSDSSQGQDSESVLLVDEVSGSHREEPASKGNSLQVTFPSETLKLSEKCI
Method: as §1, §2

[6] = target: T5, mouse EP1 with Cycle 3 GFP at the C-terminus, on 293FT cells (mouse, UniProt P35375 1-405); assay: as above
T5 construct: whole, on cells; also called mEP1; pcDNA-DEST47-mEP1; not shown: Cycle 3 GFP from the pcDNA-DEST47 vector
T5 sequence (looked up): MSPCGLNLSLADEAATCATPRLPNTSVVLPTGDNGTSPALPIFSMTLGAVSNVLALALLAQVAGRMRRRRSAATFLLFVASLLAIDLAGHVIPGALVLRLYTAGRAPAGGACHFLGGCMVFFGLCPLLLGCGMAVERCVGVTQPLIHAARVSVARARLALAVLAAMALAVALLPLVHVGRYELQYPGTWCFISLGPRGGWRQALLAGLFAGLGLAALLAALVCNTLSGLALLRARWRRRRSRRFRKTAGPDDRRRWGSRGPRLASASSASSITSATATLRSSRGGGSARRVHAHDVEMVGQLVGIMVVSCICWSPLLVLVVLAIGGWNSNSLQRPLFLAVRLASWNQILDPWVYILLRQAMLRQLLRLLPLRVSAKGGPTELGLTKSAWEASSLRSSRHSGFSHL
Method: as §1, §2

[7] = target: T6, mouse EP2 with Cycle 3 GFP at the C-terminus, on 293FT cells (mouse, UniProt Q62053 1-362); assay: as above
T6 construct: whole, on cells; also called mEP2; pcDNA-DEST47-mEP2; not shown: Cycle 3 GFP from the pcDNA-DEST47 vector
T6 sequence (Q62053 whole entry): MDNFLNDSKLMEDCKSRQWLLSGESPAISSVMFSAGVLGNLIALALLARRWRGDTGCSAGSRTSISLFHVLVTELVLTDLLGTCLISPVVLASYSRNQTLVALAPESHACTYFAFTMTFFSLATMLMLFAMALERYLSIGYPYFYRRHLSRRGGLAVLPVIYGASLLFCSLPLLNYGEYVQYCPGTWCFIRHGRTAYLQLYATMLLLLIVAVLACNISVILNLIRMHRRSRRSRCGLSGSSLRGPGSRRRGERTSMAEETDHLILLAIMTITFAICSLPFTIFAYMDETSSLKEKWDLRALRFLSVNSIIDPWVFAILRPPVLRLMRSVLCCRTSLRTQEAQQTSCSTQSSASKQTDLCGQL
Method: as §1, §2

human EP4 with V5 and 6xHIS tags at the C-terminus, on the CHO cell line stably expressing human EP4, sequence (P35408 whole entry): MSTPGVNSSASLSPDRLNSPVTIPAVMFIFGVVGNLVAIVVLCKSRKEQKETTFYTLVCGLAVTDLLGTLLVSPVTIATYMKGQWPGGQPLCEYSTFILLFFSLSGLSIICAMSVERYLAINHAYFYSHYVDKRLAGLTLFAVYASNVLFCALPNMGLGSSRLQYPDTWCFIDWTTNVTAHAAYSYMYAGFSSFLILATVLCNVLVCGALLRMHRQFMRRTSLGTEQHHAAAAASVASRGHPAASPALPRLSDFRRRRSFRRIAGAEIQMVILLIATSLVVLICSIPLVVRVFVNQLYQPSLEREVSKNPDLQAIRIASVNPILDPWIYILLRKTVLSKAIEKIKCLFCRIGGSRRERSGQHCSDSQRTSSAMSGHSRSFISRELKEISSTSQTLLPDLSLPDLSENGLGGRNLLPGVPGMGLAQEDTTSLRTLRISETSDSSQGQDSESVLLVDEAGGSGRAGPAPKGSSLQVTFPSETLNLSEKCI

IC50 of inhibition of PGE2-induced cAMP production in the CHO cell line stably expressing human EP4 (1.5×10^-10 M PGE2) [1]: 1.1 µg/mL and ~6.9 nM
B1: mouse IgG1 antibody NBG016-mAb21 (antibody)
heavy: EIQLQQSGPELVKPGASVKVSCKASGFPFSTYNIYWVIQSHGKSLEWIGYIDPYNGGTSYNQKFRGKATLTVDKSSSTAYMHLNSLTSEDSAVYYCARRWYTYDGDWFAYWGQGTLVTVSSAKTTPPSVYPLAPGSAAQTNSMVTLGCLVKGYFPEPVTVTWNSGSLSSGVHTFPAVLQSDLYTLSSSVTVPSSPRPSETVTCNVAHPASSTKVDKKIVPRDCGCKPCICTVPEVSSVFIFPPKPKDVLTITLTPKVTCVVVDISKDDPEVQFSWFVDDVEVHTAQTQPREEQFNSTFRSVSELPIMHQDWLNGKEFKCRVNSAAFPAPIEKTISKTKGRPKAPQVYTIPPPKEQMAKDKVSLTCMITDFFPEDITVEWQWNGQPAENYKNTQPIMNTNGSYFVYSKLNVQKSNWEAGNTFTCSVLHEGLHNHHTEKSLSHSPGK
light: DIKMTQSPSSMYVSLGERVTITCKASQDINRYLSWFQQKPGKSPKTLIYRANRMLDGVPSRFSGSGSGQDYSLTISSLEYEDMGNYYCLQYDEFPFTFGSGTKLEIKRADAAPTVSIFPPSSEQLTSGGASVVCFLNNFYPKDINVKWKIDGSERQNGVLNSWTDQDSKDSTYSMSSTLTLTKDEYERHNSYTCEATHKTSTSPIVKSFNRNEC

binding result [2]: no binding | binding result [3]: no binding | binding result [4]: no binding | binding result [5]: no binding | binding result [6]: no binding | binding result [7]: no binding | IC50 of inhibition of PGE2-induced cAMP production in the CHO cell line stably expressing human EP4 (1.5×10^-10 M PGE2) [1]: 4.6 µg/mL and ~28.8 nM
B2: NBG016-mAb9 (antibody, mouse IgG1, kappa, V domains shown)
VH: QVQLKESGPGLVAPSQSLSITCTVSGFSLSSYTIHWVRQPPGRGLEWLGVIWAGGSTNYNSALMSRLRISKDTSRSQVFLKVNSLQTDDSAIYYCARDDFGYGFAYWGQGTLVTVSA
VL: DVLMTQTPLSLPVSLGDQASISCRSSQSLVHTTGNTYLEWYLQKPGQSPKLLIYKISRRFSGVPDRFSGSGSGTDFTLRISRVEAADLGIYYCFQGSHIPPTFGAGTKLERKR
notes: Mouse IgG1, kappa, purified from hybridoma supernatant; the recombinant antibody (293FT supernatant) was expressed from the same genes; The entries may carry a signal peptide; also called recombinant antibody NBG016-mAb9

IC50 of inhibition of PGE2-induced cAMP production in the CHO cell line stably expressing human EP4 (5×10^-11 M PGE2) [1]: 0.15 µg/mL and ~1 nM
B3: NBG016-mAb14 (antibody, V domains shown)
VH: EIQLQQSGPELVKPGASVKVSCKASGFPFSTYNIYWVIQSHGKRLEWIGYIDPYNGGTSYNQKFRGKATLTVDKSSSTAYMHLNRLTSEDSAVYYCARRWYTYDGDWFAYWGQGTLVTVSA
VL: DIKMTQSPSSMYVSLGERVTITCKASQDINRYLSWFQQKPGKSPKTLIYRANRLLDGVPSRFSGSGSGLDYSLTISSLEYEDMGNYYCLQYDEFPFTFGSGTKLEIKR

B4: NBG016-mAb21 (antibody, mouse IgG2a)
heavy: EIQLQQSGPELVKPGASVKVSCKASGFPFSTYNIYWVIQSHGKSLEWIGYIDPYNGGTSYNQKFRGKATLTVDKSSSTAYMHLNSLTSEDSAVYYCARRWYTYDGDWFAYWGQGTLVTVSAAKTTAPSVYPLAPVCGDTTGSSVTLGCLVKGYFPEPVTLTWNSGSLSSGVHTFPAVLQSDLYTLSSSVTVTSSTWPSQSITCNVAHPASSTKVDKKIEPRGPTIKPCPPCKCPAPNLLGGPSVFIFPPKIKDVLMISLSPIVTCVVVDVSEDDPDVQISWFVNNVEVHTAQTQTHREDYNSTLRVVSALPIQHQDWMSGKEFKCKVNNKDLPAPIERTISKPKGSVRAPQVYVLPPPEEEMTKKQVTLTCMVTDFMPEDIYVEWTNNGKTELNYKNTEPVLDSDGSYFMYSKLRVEKKNWVERNSYSCSVVHEGLHNHHTTKSFSHSPGK
light: B1 light
notes: Mouse IgG2a, kappa, purified from hybridoma supernatant; the recombinant antibody was expressed from the same genes; The entries may carry a signal peptide; also called recombinant antibody NBG016-mAb21; anti-EP4 antibody
binding result [2]: no binding (tested: 1 µg per 5×10^5 cells) | binding result [3]: no binding (tested: 1 µg per 5×10^5 cells) | binding result [4]: no binding (tested: 1 µg per 5×10^5 cells) | binding result [5]: no binding (tested: 1 µg per 5×10^5 cells) | binding result [6]: no binding (tested: 1 µg per 5×10^5 cells) | binding result [7]: no binding (tested: 1 µg per 5×10^5 cells)
